Measured values taken from patent US9322000B2, “Methanol dehydrogenase enzymes from Bacillus” (Sinvent AS, priority 2012, dated 2016).

What was measured:
[1] = Alcohol dehydrogenase assay of purified MDH proteins with ethanol as substrate; assay type: biochemical
Experimental: Alcohol dehydrogenase activities were measured spectrophotometrically essentially as described previously (Hektor, Kloosterman et al. (2002) Chem 277(49): 46966-46973) and the reaction mixture contained: 100 mM Glycine-KOH pH 9.5 (unless otherwise stated), 5 mM MgSO4, 0.5 mM NAD^+ and 500 mM alcohol (methanol, ethanol, propanol, 1,3-propanediol, or butanol). NAD^+ was substituted with equal concentrations of NADP^+, FMN^+, and FAD^+, when indicated. The reaction mixture for measurements of formaldehyde reductase activity contained: 50 mM Potassium-phosphate buffer pH=6.7, 0.15 mM NADH, 1 mM DTT and 11.6 mM (0.1-116 mM) formaldehyde. The assay components were mixed in the cuvette and pre-warmed to 45° C., unless otherwise stated. The reactions were started by addition of 5-40 μg of the purified MDH proteins, and the production of NADH was monitored at 340 nm for 4 minutes. One unit of MDH activity was defined as the amount of enzyme needed to produce 1 μmol NADH per minute under the conditions described above. Purified Act (0.1-40 μg) or NudF (20 μg) proteins were added to the reaction mixtures as indicated in the text.
In order to establish reliable assay conditions for comparative biochemical characterizations, the six MDH proteins were analysed for pH and temperature optima. […]

[2] = Substrate specificity of purified MDH proteins on alternative alcohols; assay type: biochemical; conditions: all alternative alcohol substrates
Experimental: FIG. 3. Catalytic activities of purified Mdh (black), Mdh2 (dark grey) and Mdh3 (light grey) on various alcohols (200 mM) tested in vitro. (A) Substrate specificity was analysed for MDHs from B. methanolicus MGA3 in vitro. Alcohol substrates were used at concentrations of 500 mM except for pentanol (300 mM) and hexanol (50 mM). The data were calculated from the mean value from two experiments which were done in triplicate. (B) Substrate specificity for MDHs from B. methanolicus PB1 was analysed in vitro. Alcohol substrates were used at concentrations of 500 mM except for pentanol (300 mM) and hexanol (50 mM). The data were calculated from the mean value from two experiments which were done in triplicate.
Alcohol dehydrogenase activities were measured spectrophotometrically essentially as described previously (Hektor, Kloosterman et al. (2002) Chem 277(49): 46966-46973) and the reaction mixture contained: 100 mM Glycine-KOH pH 9.5 (unless otherwise stated), 5 mM MgSO4, 0.5 mM NAD^+ and 500 mM alcohol (methanol, ethanol, propanol, 1,3-propanediol, or butanol). NAD^+ was substituted with equal concentrations of NADP^+, FMN^+, and FAD^+, when indicated. […] The reactions were started by addition of 5-40 μg of the purified MDH proteins, and the production of NADH was monitored at 340 nm for 4 minutes. […]

[3] = test system: 13C-methanol; test: 13C-methanol labeling of genetically engineered B. subtilis; assay type: cell-based; conditions: B. subtilis 168 expressing Act, Mdh3, HxlA
Experimental: For the labeling experiments we used the B. subtilis strain that expresses Act, Mdh3, HxlA and HxlB and the strain that expresses Act, Mdh3, HxlA, HxlB, GlpX, Fba, Tkt, Pfk and Rpe. As a negative control the B. subtilis strain with the empty pHCMC04 plasmid was used. All B. subtilis strains were grown on M9 medium containing (per liter) 3.48 g Na2HPO4.12H20, 0.60 g of KH2PO4, 0.51 g of NaCl, 2.04 g of NH4Cl, 0.10 g of MgSO4, 4.38 mg of CaCl2, 15 mg of Na2EDTA.2H2O, 4.5 mg of ZnSO4.7H2O, 0.3 mg of CoCl2.6 H2O, 1 mg of MnCl2.4H2O, 1 mg of H3BO3, 0.4 mg of Na2MoO4.2H2O, 3 mg of FeSO4.7H2O and 0.3 mg of CuSO4.5H2O, 10 g of xylose (i.e. inducer) and 5 mg of chloramphenicol. All the cultivations were performed at 37° C. Cells strains were plated from a glycerol stock on a LB agar plate (10 g/l of tryptone, 5 g/l of yeast extract, 10 g/l of NaCl, and 16 g/l agar) containing 5 μg/ml of chloramphenicol and grown afterwards on a LB+chloramphenicol liquid medium for approximately 5 hours. The liquid pre-cultures containing M9 medium were inoculated from the LB cultures at a final OD600 between 1.4 and 1.8. […] The labeling patterns of intracellular metabolites were measured using a Dionex ICS 2000 system (Dionex, Sunnyvale, USA) coupled to a triple quadrupole QTrap 4000 mass spectrometer (Applied Biosystems, Foster City, USA).

B1: Mdh-MGA3: previously reported plasmid pBM19-encoded NAD-dependent methanol dehydrogenase of B. methanolicus MGA3, SEQ ID NO. 8 (protein)
chain: MTTNFFIPPASVIGRGAVKEVGTRLKQIGAKKALIVTDAFLHSTGLSEEVAKNIREAGVDVAIFPKAQPDPADTQVHEGVDVFKQENCDSLVSIGGGSSHDTAKAIGLVAANGGRINDYQGVNSVEKPVVPVVAITTTAGTGSETTSLAVITDSARKVKMPVIDEKITPTVAIVDPELMVKKPAGLTIATGMDALSHAIEAYVAKGATPVTDAFAIQAMKLINEYLPKAVANGEDIEAREKMAYAQYMAGVAFNNGGLGLVHSISHQVGGVYKLQHGICNSVNMPHVCAFNLIAKTERFAHIAELLGENVAGLSTAAAAERAIVALERINKSFGIPSGYAEMGVKEEDIELLAKNAYEDVCTQSNPRVPTVQDIAQIIKNAM
modifications: Bacillus methanolicus MGA3
[1]; B. subtilis NudF added
  stimulation of Mdh activity with NudF: about 8 fold
[1]; MDH and Act 1:1
  increase of catalytic activity in the presence of Act: about 8 fold

B2: Mdh3-MGA3: NAD-dependent methanol dehydrogenase encoded by chromosomal gene mdh3 of B. methanolicus MGA3, SEQ ID NO. 4 (protein)
chain: MKNTQSAFYMPSVNLFGAGSVNEVGTRLAGLGVKKALLVTDAGLHSLGLSEKIAGIIREAGVEVAIFPKAEPNPTDKNVAEGLEAYNAENCDSIVTLGGGSSHDAGKAIALVAANGGTIHDYEGVDVSKKPMVPLIAINTTAGTGSELTKFTIITDTERKVKMAIVDKHVTPTLSINDPELMVGMPPSLTAATGLDALTHAIEAYVSTGATPITDALAIQAIKIISKYLPRAVANGKDIEAREQMAFAQSLAGMAFNNAGLGYVHAIAHQLGGFYNFPHGVCNAILLPHVCRFNLISKVERYAEIAAFLGENVDGLSTYEAAEKAIKAIERMARDLNIPKGFKELGAKEEDIETLAKNAMNDACALTNPRKPKLEEVIQIIKNAM
modifications: Bacillus methanolicus MGA3
[2]
  catalytic activity on alternative alcohols compared with the remaining MDHs: significantly higher catalytic activity than the remaining enzymes
[3]; HxlB plus overexpressed PPP genes
  13C labeling of metabolites (mass isotopomer fraction M1): significant labeling incorporation was detected
[3]; HxlB, no PPP genes overexpressed
  13C labeling of metabolites (mass isotopomer fraction M1): no labeling was found
